Assay results as given in patent US20140335050A1, “METHODS, COMPOSITIONS, AND KITS FOR THE TREATMENT OF CANCER” (The General Hospital Corporation, priority 2011, published 2014).

Tests used:
Assay type in all cases: cell-based, human
MU89 melanoma cells = experiment: Tumor cell/T cell co-culture IL-2 ELISA (Melan-A/MART-1 specific TCR Jurkat line J-TCR-M1 as responder)
From the text: The assay relies on the use of an antigen-specific responder T cell line. […] The chosen TCR reacts specifically to a Melan-A/MART-1 decapeptide (26[…]35) presented by HLA-A2, with appropriate triggering of T cell activation. We then used a lentiviral vector system for transduction of this specific TCR into the J.RT3-T3.5 T cell line, a Jurkat cell derivative which fails to express endogenous surface TCR through a mutation in its beta chain.
We evaluated several candidate melanoma cell lines for the ability to stimulate the J-TCR-M1 cell line. Levels of Melan-A/MART-1 (determined by intracellular staining and flow cytometry) and corresponding levels of induced IL-2 (determined by coculture with J-TCR-M1 and IL-2 ELISA) were tested for different melanoma cell lines.
The 480 compounds were tested in six parallel 96 well plates. The first two columns (16 wells) of each plate were used for standards (8 wells), untreated controls (4 wells), and positive controls (4 wells). The other ten columns (80 wells) were used for testing compounds in separate wells. A100 μl aliquot containing 5×10^4 MU89 cells was added to wells that contained 0.1 μl of each test drug diluted in 50 μl of RPMI media. The plates were incubated with drug for 72 hours at 37° C. in a humidified incubator with 5% CO2. After 72 hours, each well received 2.5×10^4J-TCR-M1 cells in 50 μl medium, and then incubated a further 24 hours. At the conclusion of the 24 hour co-culture period, each plate was centrifuged to pellet the cells and 100 μl supernatant fluid was collected from each well and plated in a parallel 96 well flat bottom well for IL-2 ELISA assay.
Melanoma cells were treated with hits from the primary screen for three days prior to counting and plating for the coculture assay (cells were washed and resuspended in fresh medium that no longer contained the treatment agents during the co-culture). A100 μl volume of 5×10^5 cells/ml tumor cells were mixed with 50 μl of […] T cells in a 96-well V-bottom plate and incubated overnight (16-24 hours). Plates were centrifuged to pellet the cells and 100 μl of supernatant fluid was removed from each well for cytokine assay. To assess antigen-specific T cell responses, a final concentration of 3.33 μg/ml Melan-A/MART-1 peptide (26[…]35 (A27L from wild type)) was added to the co-culture.
The protocol for evaluation of the cytokine IL-2 was performed using a the BD OptEAI kit, human IL-2 ELISA set from BD Biosciences (San Diego, Calif.) following the manufacturer's recommendations. The absorbance 450 nm was read in a BioRad 3550 plate reader. A standard curve using known concentrations of IL-2 (from 500 to 8 pg/ml) was included in each ELISA plate. IL-2 levels for experimental samples (pg/ml) were calculated from the standard curve.
100 μl of 5×10^5 tumor cells/ml were mixed with 50 μl of T cells (at 5×10^5 cells/ml) in a 96-well V-bottom plate and incubated overnight (16-24 hours). Plates were centrifuged to pellet the cells and 120 μl of supernatant fluid was removed from each well for cytokine assay. To assess antigen-specific T cell responses, 3.33 μg/ml Melan-A/MART-1 peptide was added to the co-culture.
The protocols for evaluation of either IL-2 or IFN-gamma were similar, following the manufacturer's recommendations. A standard curve using known concentrations of each cytokine was included in each ELISA experiment. ELISA plates were coated with capture antibody and then washed with 1×PBS 0.5% Tween-20. Wells were blocked with 1×PBS 1% FBS for 1 hour and rewashed.

[1] = tested on: Melan-A/MART-1 promoter EGFP reporter cell line; experiment: Melan-A/MART-1 promoter-driven EGFP reporter cell line, secondary screen of hits (FIG. 6); conditions: over a dose range (FIG. 6)
From the text: FIG. 6 is a series of graphs showing EGFP detection of in cells treated with the indicated hits showing ability to upregulate a cell line containing a Melan-A/MART-1 promoter-driven EGFP reporter. Note that the x-axes (drug concentrations) and y-axes (EGFP fluorescent measurement) cover different ranges to best indicate the activities of individual compounds. Data from a single determination, representative of at least three confirmatory experiments, is shown.
The EGFP reporter driven by the Melan-A/MART-1 promoter represents one such orthogonal assay because it evaluates directly the effect of the compounds on Melan-A/MART-1 promoter activity independent of Melan-A/MART-1 protein expression. Compounds passing the other secondary screens, but failing this one, may affect antigen presentation by other mechanisms such as increasing the efficiency of antigen processing, enhancing MHC Class I levels, or by stabilizing the antigen/MHC complex.
As for the primary screen, 17-AAG and aphidicolin, had the largest impact on EGFP stimulation, inducing 3-fold and 5-fold increases respectively. […]
(§1) Cells were fixed with 1% formaldehyde, permeabilized with 0.1% saponin, stained with monoclonal antibodies to melanocyte antigens. […] The level of EGFP was determined by flow cytometry of unfixed cells that were washed and resuspended in 1×PBS.

melanomas and gliomas = experiment: Intracellular staining for Melan-A/MART-1 and gp100, melanomas and gliomas exposed to hits (Table 10); conditions: in most cell lines; three days (Table 10)
Experimental: FIG. 7 is a series of graphs showing intracellular staining and flow histograms used to generate data for Table 10. All cells were stained with an antibody to gp100. Thin line represents untreated cells, bold line represents cells treated for three days with 17-AAG (1 μg/ml). Numbers represent geometric mean of flow histograms.
A further orthogonal secondary screen is the measurement of Melan-A/MART-1 and gp100 in additional melanoma cell lines and gliomas in response to the primary hit candidates. […] If the compounds of interest increase antigen levels in multiple melanoma cell lines and two gliomas, the effects of the compounds are clearly not limited to a single melanoma cell type.
As for the primary screen, 17-AAG and aphidicolin, had the largest impact on EGFP stimulation, inducing 3-fold and 5-fold increases respectively. Four additional compounds: damnacanthal, flunarizine, OBAA, and dantrolene stimulated EGFP more than 2-fold. We then tested the ability of the hit compounds to induce antigen increases in a more diverse set of tumors including melanomas and gliomas. […]
as §1

[2] = tested on: HeLa cervical carcinoma cells; experiment: Surface antibody staining and flow cytometry (MHC Class I/II)
Experimental: (§2) Intracellular staining and flow cytometric analyses of cytoplasmic Melan-A/MART-1, and gp100 expression were performed as described previously. Cells were fixed with 1% formaldehyde, permeabilized with 0.1% saponin, stained with monoclonal antibodies to melanocyte antigens. Antibodies were obtained with specificity for: Melan-A/MART-1 from Vector Labs (Burlingame, Calif.); gp100/HMB45 from DakoCytomation (Carpinteria, Calif.) and then visualized with goat anti-mouse FITC-conjugated secondary antibody from Invitrogen (Frederick, Md.). The level of EGFP was determined by flow cytometry of unfixed cells washed and resuspended in 1×PBS. Surface staining of MHC Class I was carried out using the antibody W6/32 on cells harvested with Cell Stripper from MediaTech Inc. (Manassas, Va.) and carried out on ice.
(§3) Cell were seeded at 1×10^6 cells in a T25 flask with 10 ml of media for the 4 day IFN-beta pre-treatments. Cells were then harvested and plated in 24 well plate at 1×10^5 cells per well in 1 ml of media for 3 day treatments.
(§4) For surface staining of HLA Class I and II antigens, cells were harvested using CellStripper™ from Mediatech (Manassas, Va.). All staining steps were performed on ice. Following a first incubation with antibody to Class I (W6/32) or Class II (L243) for 30 minutes. Stained cells were washed twice with cold PBS and then stained with a goat anti-mouse FITC secondary antibody to allow for quantitative analysis by flow cytometry. For evaluation of cytoplasmic antigens, including Melan-A/MART-1 and gp100, cells were first fixed in paraformaldehyde and permeabilized with saponin as previously described. Staining for cytoplasmic antigens was carried out at room temperature (22° C.).

U2-OS osteosarcoma cells = experiment: as above; conditions: U2-OS
Experimental: as §2, §3, §4

[3] = tested on: MCF-7 breast cancer cells; experiment: as above; conditions: MCF-7; single agent
Experimental: as §2, §3, §4

[4] = tested on: Raji B cell lymphoma cells; experiment: as above
Experimental: as §2, §3, §4

MU89 melanoma cell line = experiment: Antibody staining and flow cytometry (intracellular Melan-A/MART-1, gp100, TRP-2; surface MHC Class I/II)
Experimental: (§5) Cells were fixed with 1% formaldehyde, permeabilized with 0.1% saponin, stained with monoclonal antibodies to melanocyte antigens. Antibodies were obtained with specificity for: MART-1 from Vector Labs (Burlingame, Calif.); gp100 HMB45 from DakoCytomation (Carpinteria, Calif.) and then visualized with goat anti-mouse FITC-conjugated secondary antibody from Invitrogen (Fredrick, Md.). The level of EGFP was determined by flow cytometry of unfixed cells that were washed and resuspended in 1×PBS.
(§6) Cells were plated at a density of 1×10^5 in 1 ml of medium in a 24-well plate and cultured for varying times as indicated in results. […] After incubation, cells were collected by trypsinization and then evaluated by flow cytometry.
as §2, §3, §4

tumor cell lines = experiment: MHC Class I and Class II surface staining, statements over a panel of tumor cell lines; conditions: HeLa, MCF-7, U2-OS, MU-89, U118, Jurkat, Raji (Table 19)
Experimental: as §4

[5] = tested on: Jurkat T cell lymphoma cells; experiment: Surface antibody staining and flow cytometry (MHC Class I/II)
Experimental: as §2, §4

[6] = tested on: EBV-19 B cell lymphoma cells; experiment: as above; conditions: three days, IFN-β 5000 Units/ml, IFN-γ 100 ng/ml
Experimental: as §2, §4

[7] = tested on: U-118 MG glioma cell line; experiment: Antibody staining and flow cytometry (intracellular gp100; surface MHC Class I/II)
Experimental: as §5, §6, §2, §3, §4

[8] = three days, IFN-β 5000 Units/ml, IFN-γ 100 ng/ml, PU-H71 0.3 mg/ml
[9] = MU89, three days, IFN-β 5000 Units/ml, IFN-γ 100 ng/ml, PU-H71 0.3 mg/ml

Molecule: C[C@@]1(CO)[C@H](O)CC[C@@]2(C)[C@H]1CC[C@H]1C[C@@H]3C[C@@]12CC[C@]3(O)CO [Aphidicolin]
- Fold increase (IL-2 relative to untreated controls), hits from pilot screen (MU89 melanoma cells; about 10 μM, 72 hours treatment, then 24 hours co-culture): 2.0 fold
- IL-2 stimulation in repeat of the tumor T cell co-culture IL-2 ELISA (MU89 melanoma cells; hits re-tested over a wider dose range (FIG. 5)): ~5 fold
- EGFP stimulation (Melan-A/MART-1 promoter reporter) [1]: 5 fold
- Protein increase (Melan-A/MART-1, gp100 intracellular staining) (melanomas and gliomas): inducing high levels of protein increases at low concentrations

B1: IFN-γ: IFN-γ-1b stock solution 100 μg/ml in PBS; SEQ ID NO: 5 (protein)
chain: MQDPYVKEAENLKKYFNAGHSDVADNGTLFLGILKNWKEESDRKIMQSQIVSFYFKLFKNFKDDQSIQKSVETIKEDMNVKFFNSNKKKRDDFEKLTNYSVTDLNVQRKAIHELIQVMAELPPAAETGKRKRSQMLFRGR
modifications: IFN-gamma-1b
- L243 (MHC Class II surface staining) ([2]; HELA, single agent): 86.0
- W6/32 (MHC Class I surface staining) ([2]; HELA, single agent): 464.8
- MHC Class II, geometric mean of surface staining (L2443) ([2]; HeLa, three days, IFN-β 5000 Units/ml, IFN-γ 100 ng/ml, PU-H71 0.3 mg/ml): 214
- MHC Class I, geometric mean of surface staining (W6/32) ([2]; HeLa, three days, IFN-β 5000 Units/ml, IFN-γ 100 ng/ml, PU-H71 0.3): 637
- L243 (MHC Class II surface staining) (U2-OS osteosarcoma cells; single agent): 87.6
- W6/32 (MHC Class I surface staining) (U2-OS osteosarcoma cells; single agent): 293.2
- MHC Class I, geometric mean of surface staining (W6/32) (U2-OS osteosarcoma cells; [8]): 284
- MHC Class II, geometric mean of surface staining (L2443) (U2-OS osteosarcoma cells; [8]): 237
- L243 (MHC Class II surface staining) [3]: 59.1
- W6/32 (MHC Class I surface staining) [3]: 478.5
- L243 (MHC Class II surface staining) ([4]; single agent): 339.3
- W6/32 (MHC Class I surface staining) ([4]; single agent): 117
- MHC Class I, geometric mean of surface staining (W6/32) [4, 8]: 117
- MHC Class II, geometric mean of surface staining (L2443) [4, 8]: 142
- MHC Class I, geometric mean of surface staining (W6/32) (MU89 melanoma cell line; [9]): 213
- MHC Class II, geometric mean of surface staining (L2443) (MU89 melanoma cell line; [9]): 139
- L243 (MHC Class II surface staining) (MU89 melanoma cell line; MU-89, single agent): 57.6
- W6/32 (MHC Class I surface staining) (MU89 melanoma cell line; MU-89, single agent): 138.0
- Class I MHC expression over the tumor panel (tumor cell lines): induce significant increases
- Class II MHC expression over the tumor panel (tumor cell lines): induced significant Class II
- L243 (MHC Class II surface staining) ([5]; single agent): 1.1
- W6/32 (MHC Class I surface staining) ([5]; single agent): 86.5
- MHC Class I, geometric mean of surface staining (W6/32) ([5]; three days, IFN-β 5000 Units/ml, IFN-γ 100 ng/ml, PU-H71 0.3 μg/ml): 87
- MHC Class II, geometric mean of surface staining (L2443) [5, 8]: 1
- MHC Class II, geometric mean of surface staining (L2443) ([6]; PU-H71 0.3 mg/ml): 118
- MHC Class I, geometric mean of surface staining (W6/32) ([6]; PU-H71 0.3): 277
- MHC Class II, geometric mean of surface staining (L2443) ([7]; Giloma-118, three days, IFN-β 5000 Units/ml, IFN-γ 100 ng/ml, PU-H71 0.3 mg/ml): 40
- MHC Class I, geometric mean of surface staining (W6/32) ([7]; Giloma-118, three days, IFN-β 5000 Units/ml, IFN-γ 100 ng/ml, PU-H71 0.3): 137
- L243 (MHC Class II surface staining) ([7]; U118, single agent): 65.3
- W6/32 (MHC Class I surface staining) ([7]; U118, single agent): 250.5
